Tested on: C=C(OP(=O)(O)O)C(=O)O
Assay: purified protein
Conditions: Hepes pH 8.0, 25 C, apparent

Sequence of PK (pyruvate kinase) (Oryctolagus cuniculus) (chain, as listed by the source): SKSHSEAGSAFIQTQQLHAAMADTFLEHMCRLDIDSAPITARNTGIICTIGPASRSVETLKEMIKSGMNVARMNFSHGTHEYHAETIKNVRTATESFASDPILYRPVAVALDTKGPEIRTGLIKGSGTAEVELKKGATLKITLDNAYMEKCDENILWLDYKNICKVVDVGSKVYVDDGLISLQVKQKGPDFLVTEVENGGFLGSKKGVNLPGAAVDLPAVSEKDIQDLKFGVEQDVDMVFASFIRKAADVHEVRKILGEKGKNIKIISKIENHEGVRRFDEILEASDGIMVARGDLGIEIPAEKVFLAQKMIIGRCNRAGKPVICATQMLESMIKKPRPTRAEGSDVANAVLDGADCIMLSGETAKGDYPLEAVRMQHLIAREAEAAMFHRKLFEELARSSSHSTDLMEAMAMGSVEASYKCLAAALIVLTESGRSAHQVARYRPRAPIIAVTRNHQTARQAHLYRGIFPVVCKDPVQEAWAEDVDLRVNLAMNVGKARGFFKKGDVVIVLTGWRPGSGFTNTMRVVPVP

## PK (pyruvate kinase) (Oryctolagus cuniculus)
  Km: 40 µM
  kcat: 160 s⁻¹
